Reference: ChEMBL document CHEMBL1142441, “Stereochemical studies on the novel monoamine oxidase B substrates (1R,6S)- and (1S,6R)-3-methyl-6-phenyl-3-aza-bicyclo[4.1.0]heptane” (Bioorg Med Chem, 2008)

Columns and labels:
[1] = substrate: [H][C@]12CN(C)CC[C@@]1(c1ccccc1)C2; assay: (§1) Activity of 50 nM human recombinant MAOB after 30 mins
[2] = substrate: [H][C@@]12CN(C)CC[C@]1(c1ccccc1)C2; assay: as §1

B1: Amine oxidase [flavin-containing] B (Homo sapiens) (protein)
chain: MSNKCDVVVVGGGISGMAAAKLLHDSGLNVVVLEARDRVGGRTYTLRNQKVKYVDLGGSYVGPTQNRILRLAKELGLETYKVNEVERLIHHVKGKSYPFRGPFPPVWNPITYLDHNNFWRTMDDMGREIPSDAPWKAPLAEEWDNMTMKELLDKLCWTESAKQLATLFVNLCVTAETHEVSALWFLWYVKQCGGTTRIISTTNGGQERKFVGGSGQVSERIMDLLGDRVKLERPVIYIDQTRENVLVETLNHEMYEAKYVISAIPPTLGMKIHFNPPLPMMRNQMITRVPLGSVIKCIVYYKEPFWRKKDYCGTMIIDGEEAPVAYTLDDTKPEGNYAAIMGFILAHKARKLARLTKEERLKKLCELYAKVLGSLEALEPVHYEEKNWCEEQYSGGCYTTYFPPGILTQYGRVLRQPVDRIYFAGTETATHWSGYMEGAVEAGERAAREILHAMGKIPEDEIWQSEPESVDVPAQPITTTFLERHLPSVPGLLRLIGLTTIFSATALGFLAHKRGLLVRV
For B1, the Km [1] was 221 µM and the Km [2] was 221 µM.
